{"source": "patent US20130302329A1", "about": "“DIAGNOSTIC TESTS FOR IMMUNE REACTIVITY WITH HUMAN ENDOTHELIAL CELL GROWTH FACTOR” (TRUSTEES OF BOSTON UNIVERSITY, priority 2010, published 2013)", "key": {"[1]": {"test_system": "PBMC", "assay": "Retest of peptides with the patient's own PBMC: IFN-γ secretion", "assay_type": "cell-based, human", "settings": "PBMC of patient LA1, second assay", "excerpt": "Only two peptide sets (set 33 and set 40) induced proliferation responses that were >2 times background (FIG. 2). Enough cells remained for retesting the first set together and the second peptide set individually. In the second assay, only one peptide induced proliferation and IFN-γ secretion that were >2 times background. This peptide (^340LGRFERMLAAQGGVDPG^355) (SEQ ID NO:1), 1 of the 16 identified by only one of the three search programs, originated from the source protein platelet-derived endothelial cell growth factor (ECGF), also called thymidine phosphorylase or gliostatin."}, "[2]": {"test_system": "PBMC", "assay": "Testing of subjects' PBMC with commercially available recombinant ECGF", "assay_type": "cell-based, human", "experimental": "Initially, subjects' PBMC were tested using commercially available recombinant ECGF. […] Consequently, three HLA-DR T-cell epitope prediction algorithms (Wang et al., PLoS Computat. Biol. e1000048 (2008)), were used to identify seven ECGF peptides, including the one peptide identified in the initial patients' sample (ECGF340-365), that were predicted to be presented by the HLA-DR molecules associated with antibiotic-refractory Lyme arthritis. These peptides were synthesized and tested for autoreactivity via IFN-γ ELISPOT assays using patient and control PBMC (FIG. 3). Based upon the values obtained in 14 healthy control subjects (FIG. 3), a positive T cell response was defined as a stimulation index (no. of spots induced by an ECGF peptide /no. of spots in no antigen controls) 3 standard deviation (SD) above the mean of healthy controls, which characteristically gave >40 spot forming units (SFU)/10^6 PBMC and a stimulation index of >8."}}}
{"molecule": "LGRFERMLAAQGVDPG (listed as Homo sapiens) [SEQ ID NO:1, ECGF peptide (index case), HLA-DR-presented, identified in LA1 synovial sample]", "values": [{"measurement": "IFN-γ secretion relative to background", "setting": "[1]", "result": "> 2", "unit": "times background"}]}
{"molecule": "ECGF: commercially available recombinant human platelet-derived endothelial cell growth factor, also called thymidine phosphorylase or gliostatin (protein, UniProt P19971 11-482, looked up) Thymidine phosphorylase: APPAPGDFSGEGSQGLPDPSPEPKQLPELIRMKRDGGRLSEADIRGFVAAVVNGSAQGAQIGAMLMAIRLRGMDLEETSVLTQALAQSGQQLEWPEAWRQQLVDKHSTGGVGDKVSLVLAPALAACGCKVPMISGRGLGHTGGTLDKLESIPGFNVIQSPEQMQVLLDQAGCCIVGQSEQLVPADGILYAARDVTATVDSLPLITASILSKKLVEGLSALVVDVKFGGAAVFPNQEQARELAKTLVGVGASLGLRVAAALTAMDKPLGRCVGHALEVEEALLCMDGAGPPDLRDLVTTLGGALLWLSGHAGTQAQGAARVAAALDDGSALGRFERMLAAQGVDPGLARALCSGSPAERRQLLPRAREQEELLAPADGTVELVRALPLALVLHELGAGRSRAGEPLRLGVGAELLVDVGQRLRRGTPWLRVHRDGPALSGPQSRALQEALVLSDRAPFAAPSPFAELVLPPQQ", "values": [{"measurement": "effect on thymidine incorporation", "setting": "[2]; actively dividing cells", "result": "inhibited thymidine incorporation into actively dividing cells"}, {"measurement": "IFN-γ secretion by PBMC", "setting": "[2]; subjects' PBMC", "result": "non-specifically induced PBMC to secrete IFN-γ"}]}
